Data published in patent publication US20060134788.

Tested on: T1, MJ1 integrase (phage phiFC1) (Enterococcus phage phiFC1)
T1 sequence: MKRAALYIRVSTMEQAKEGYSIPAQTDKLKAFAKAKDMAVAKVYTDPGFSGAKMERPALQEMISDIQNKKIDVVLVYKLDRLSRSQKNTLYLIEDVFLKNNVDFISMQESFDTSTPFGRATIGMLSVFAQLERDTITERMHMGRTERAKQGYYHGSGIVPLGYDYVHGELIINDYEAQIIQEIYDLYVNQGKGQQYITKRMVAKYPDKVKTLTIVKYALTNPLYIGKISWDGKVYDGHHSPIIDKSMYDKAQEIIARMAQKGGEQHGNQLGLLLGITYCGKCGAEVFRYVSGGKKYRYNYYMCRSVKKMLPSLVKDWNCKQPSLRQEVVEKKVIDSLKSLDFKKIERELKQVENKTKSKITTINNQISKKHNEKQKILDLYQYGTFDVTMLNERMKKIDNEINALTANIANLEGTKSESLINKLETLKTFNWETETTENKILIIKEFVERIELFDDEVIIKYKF
Test: cell_activity
Details: 396 cells without MJ1, FACS 72 h

Sequence | activity (fluorescent cells) (attB x attP integration in 293T cells) | activity (fluorescent cells) (attP x attB integration in 293T cells)
CGGCCATTGAATTAGGGTGTCGAATTTATCAAAGTAGTCAAATCAAATTTGGCAAAGTTACGTCCAGTCAACAAGTCGCTCAACGATTACTCCAAGAGATGAAGGGGCTGCAACAAGAACATTTAATTTGTATTTACTTGAATACCAAGAATGACATTATCCAACAGAAAACGATTTTCAAAGGATCACTGAATCAAAGTATTGCTCATCCACGCGAAATTTTTCGGGAAGCGGTTAAATATTCTTCTGCTCGCATACTATTAGCTCATAATCATCCATCTGGCAATCCG (double strand) [attB 290 bp] | 1240 | –
GAAGATCTTGTTCTCGAGCATAGTCTCCTTCAAGTTTTGTTATATCTGATAATAGAGACTTTTCTTTTTGTTGTAAACTATTGATTGACAAATCTGGTCCTCCTTTAAAATATATAATTAATATTGGTTTAATTATACCATTCTATAGGTAAGAACAGTAATATGACCAAATTTAAATATCTTTTTATGCACTAATCAAAGTTTTCCTTACAAGCATTTNTTCAATTACGAGTTGATTTCTTTTATTCAAATGACCATAGACAGCTAGTTCAGATTTTTCGGGTAGCATTAGTAACATATTTGCTAATTCGTATTTGGAGACGATACAGTTTATAGTTTCGTCCTGTGTTACTAATGAGAATCGAACTAGCATTTTTGGGTACATACTTAACATTCTAATCTTTTCAACTACTCCTACATAATTAGTTTTCATAATATCGGCCTCCTAGTAATACAATTATACCGAATGCATGTTCGTATTGTCTATAGGTTTGTATAAATGTAATATTTTAGGTATATGATTTTGTTTATTAGTGTAAATAACACTATGTACCTAAAATTTATATTTAATAATTACCTCATCATCAAATAGTTCTATACGTTCAACAAACTCTTTGATGATAAGGATTTTATTTTCTGTAGTTTCAGTTTCCCAATTAAAAGTTTTTAACGTTTCAAGCTTATTAATTAATGACTCACTTTTGGTACCTTCTAAGTTTGCTATATTGGCAGTTAACGC (double strand) [attP 739 bp] | – | 1240
